From article PMC9527255, “Structure of the TnsB transposase-DNA complex of type V-K CRISPR-associated transposon”

Experiments:
[1] = biological target: Scytonema hofmannii TnsB transposase (type V-K CRISPR-associated transposon) (Scytonema hofmannii (UTEX 2349)); assay: cryo-EM structure; 40 uM shTnsB with 10 uM STC DNA in 50 mM HEPES pH 7.5, 300 mM NaCl, 5 mM MgCl2, 1 mM TCEP, 30 min at 37 C; post-catalytic strand-transfer complex, 2.46 A
[2] = biological target: Scytonema hofmannii TnsB transposase (type V-K CRISPR-associated transposon) (Scytonema hofmannii (UTEX 2349)); assay: SEC-MALS; shTnsB mixed with the reconstituted strand-transfer complex (STC) DNA; the high MW peak at 358.7 kDa holds the STC DNA and shTnsB
shTnsB [3] = biological target: T1, shTnsB (Scytonema hofmannii UTEX 2349, UniProt PDB:8AA5_1 1-596); assay: cryo-EM structure (2.4 Å); 5 mM MgCl2; TnsB tetramer; 50 mM HEPES pH 7.5, 300 mM NaCl, 5 mM MgCl2, 1 mM TCEP, 37 °C, 30 min; 6% DNA retardation gel; conditions: protein: recombinant; tags: C-terminal His6 (TEV treatment, tag removed); chain copies: 4; six strands: 1:2 1:3 (RE arm), 4:5 4:6 (LE arm); the arms pair through the 5 nt target between the insertion sites (1:4); 5' polyA overhangs on strands 2 and 5
T1 sequence: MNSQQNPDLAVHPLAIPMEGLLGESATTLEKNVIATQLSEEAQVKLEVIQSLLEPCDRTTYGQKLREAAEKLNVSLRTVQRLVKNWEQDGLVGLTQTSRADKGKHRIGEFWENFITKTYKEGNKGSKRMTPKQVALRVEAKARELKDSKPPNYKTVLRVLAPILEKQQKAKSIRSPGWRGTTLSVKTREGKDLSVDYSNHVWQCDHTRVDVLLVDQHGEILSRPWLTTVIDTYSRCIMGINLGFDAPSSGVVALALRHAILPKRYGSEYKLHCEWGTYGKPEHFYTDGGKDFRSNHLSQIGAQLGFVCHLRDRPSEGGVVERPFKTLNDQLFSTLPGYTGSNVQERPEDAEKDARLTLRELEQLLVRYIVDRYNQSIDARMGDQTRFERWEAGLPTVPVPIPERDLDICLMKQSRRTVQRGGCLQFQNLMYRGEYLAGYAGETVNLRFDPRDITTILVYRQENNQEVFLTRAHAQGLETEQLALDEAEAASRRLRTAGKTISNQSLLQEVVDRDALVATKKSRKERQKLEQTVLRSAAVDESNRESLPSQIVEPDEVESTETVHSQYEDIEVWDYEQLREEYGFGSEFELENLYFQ

shTnsB [4] = biological target: T1, shTnsB; assay: EMSA; 5 mM MgCl2; four bands, three sites expected; 50 mM HEPES pH 7.5, 300 mM NaCl, 5 mM MgCl2, 1 mM TCEP, 37 °C, 30 min; 6% DNA retardation gel; conditions: protein: recombinant; tags: C-terminal His6 (TEV treatment, tag removed); chain copies: 4; blunt

With “Scytonema hofmannii TnsB transposase (type V-K CRISPR-associated transposon) (enzyme)” the stoichiometry N [1] was 4 and the stoichiometry N [2] was 4.

B1: STC DNA (RE_Target, RE_polyA, Target_1, LE_Target, LE_polyA, Target_2) (structured_DNA)
DNA 1: ATAAGGATTTTACTGATGACAATAATTTGTCACAACGACATATAATTAGTCACTGTACACGTAGAGACGTAGCAATGCT
DNA 2: AAAAAAAAAAAAAAATGTACAGTGACTAATTATATGTCGTTGTGACAAATTATTGTCATCAGTAAAATCCTTAT
DNA 3: AGCATTGCTACGTCT
DNA 4: AATTAAATAGTCACAATGACATTAATCTGTCACCGACGACAGATAATTTGTCACTGTACACTACGCCTTTTGTGGAGATG
DNA 5: AAAAAAAAAAAAAAATGTACAGTGACAAATTATCTGTCGTCGGTGACAGATTAATGTCATTGTGACTATTTAATT
DNA 6: CATCTCCACAAAAGG
B1: binds (shTnsB [3]).

B2: LE (dsDNA)
DNA 1: ATTATATTGATGACATTTAATTTGTCATCAATTAATTAAGCAACGCTGATGGGTCACGACGACAATTAAATAGTCACAATGACATTAATCTGTCACCGACGACAGATAATTTGTCACTGTACACTACGCCTTTTGTGG
DNA 2: CCACAAAAGGCGTAGTGTACAGTGACAAATTATCTGTCGTCGGTGACAGATTAATGTCATTGTGACTATTTAATTGTCGTCGTGACCCATCAGCGTTGCTTAATTAATTGATGACAAATTAAATGTCATCAATATAAT
B2: binds (shTnsB [4]).
